Measurements reported in PMC8551067 (Biochemistry, 2021).
Changes are numbered by the printed parent chain. Numbers in names are those of the source.

B1: PvCPS (full-length copalyl diphosphate synthase) (Talaromyces verruculosus; H786A) (protein)
chain: MSPMDLQESAAALVRQLGERVEDRRGFGFMSPAIYDTAWVSMISKTIDDQKTWLFAECFQYILSHQLEDGGWAMYASEIDAILNTSASLLSLKRHLSNPYQITSITQEDLSARINRAQNALQKLLNEWNVDSTLHVGFEILVPALLRYLEDEGIAFAFSGRERLLEIEKQKLSKFKAQYLYLPIKVTALHSLEAFIGAIEFDKVSHHKVSGAFMASPSSTAAYMMHATQWDDECEDYLRHVIAHASGKGSGGVPSAFPSTIFESVWPLSTLLKVGYDLNSAPFIEKIRSYLHDAYIAEKGILGFTPFVGADADDTATTILVLNLLNQPVSVDAMLKEFEEEHHFKTYSQERNPSFSANCNVLLALLYSQEPSLYSAQIEKAIRFLYKQFTDSEMDVRDKWNLSPYYSWMLMTQAITRLTTLQKTSKLSTLRDDSISKGLISLLFRIASTVVKDQKPGGSWGTRASKEETAYAVLILTYAFYLDEVTESLRHDIKIAIENGCSFLSERTMQSDSEWLWVEKVTYKSEVLSEAYILAALKRAADLPDENAEAAPVINGISTNGFEHTDRINGKLKVNGTNGTNGSHETNGINGTHEIEQINGVNGTNGHSDVPHDTNGWVEEPTAINETNGHYVNGTNHETPLTNGISNGDSVSVHTDHSDSYYQRSDWTADEEQILLGPFDYLESLPGKNMRSQLIQSFNTWLKVPTESLDVIIKVISMLHTASLLIDDIQDQSILRRGQPVAHSIFGTAQAMNSGNYVYFLALREVQKLQNPKAISIYVDSLIDLARGQGMELFWRDSLMCPTEEQYLDMVANKTGGLFCLAIQLMQAEATIQVDFIPLVRLLGIIFQICDDYLNLKSTAYTDNKGLCEDLTEGKFSFPIIHSIRSNPGNRQLINILKQKPREDDIKRYALSYMESTNSFEYTRGVVRKLKTEAIDTIQGLEKHGLEENIGIRKILARMSLEL
B2: PvCPS (full-length copalyl diphosphate synthase) (Talaromyces verruculosus; S723F) (protein)
chain: B1 chain with S723F, A786H
B3: PvCPS (full-length copalyl diphosphate synthase) (Talaromyces verruculosus; S723T) (protein)
chain: B1 chain with S723T, A786H
B4: PvCPS (full-length copalyl diphosphate synthase) (Talaromyces verruculosus; F760A) (protein)
chain: B1 chain with F760A, A786H

Experiments:
[1] = biological target: S723F-PvCPS-α (prenyltransferase α domain of copalyl diphosphate synthase from Penicillium verruculosum, S723F variant) (Penicillium verruculosum); test: crystal structure
[2] = biological target: PvCPS (full-length copalyl diphosphate synthase) (Talaromyces verruculosus, UniProt A0A348FUE1, S723T); conditions: substrate inhibition constant; 1 mM DMAPP, 1 mM MgCl2, pH 7.5
purified protein = substrate: C=C(C)CCO[P@@](=O)(O)OP(=O)(O)O; test: purified protein; conditions: prenyltransferase activity, 1 mM DMAPP, 1 mM MgCl2, pH 7.5

PvCPS (full-length copalyl diphosphate synthase), sequence (A0A348FUE1 whole entry S723T): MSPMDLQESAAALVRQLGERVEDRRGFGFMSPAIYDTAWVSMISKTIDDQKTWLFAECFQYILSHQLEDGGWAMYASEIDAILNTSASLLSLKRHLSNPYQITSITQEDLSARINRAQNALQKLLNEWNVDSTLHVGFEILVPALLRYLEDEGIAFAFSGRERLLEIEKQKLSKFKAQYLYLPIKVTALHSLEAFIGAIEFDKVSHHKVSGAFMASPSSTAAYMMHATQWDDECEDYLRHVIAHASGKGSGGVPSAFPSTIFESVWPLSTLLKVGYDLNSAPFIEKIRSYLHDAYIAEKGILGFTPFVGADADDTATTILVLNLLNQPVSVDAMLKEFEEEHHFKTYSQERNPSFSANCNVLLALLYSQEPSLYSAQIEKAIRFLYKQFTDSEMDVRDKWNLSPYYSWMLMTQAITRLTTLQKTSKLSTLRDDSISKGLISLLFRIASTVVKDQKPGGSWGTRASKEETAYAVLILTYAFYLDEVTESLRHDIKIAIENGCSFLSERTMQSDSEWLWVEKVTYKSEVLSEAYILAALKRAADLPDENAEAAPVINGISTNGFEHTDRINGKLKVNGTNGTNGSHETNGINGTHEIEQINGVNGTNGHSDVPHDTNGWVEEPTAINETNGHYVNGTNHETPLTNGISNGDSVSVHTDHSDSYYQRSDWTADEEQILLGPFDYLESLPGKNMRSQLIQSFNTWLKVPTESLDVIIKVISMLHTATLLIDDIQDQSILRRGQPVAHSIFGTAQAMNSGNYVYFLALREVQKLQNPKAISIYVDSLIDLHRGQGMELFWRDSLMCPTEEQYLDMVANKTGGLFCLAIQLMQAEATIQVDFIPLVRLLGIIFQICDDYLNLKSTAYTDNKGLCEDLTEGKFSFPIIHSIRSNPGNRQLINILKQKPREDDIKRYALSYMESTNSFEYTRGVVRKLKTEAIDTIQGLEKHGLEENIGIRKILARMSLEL

Row | Molecule | stoichiometry N [1] | S723T [2] [µM] | Km (purified protein) [µM] | kcat (purified protein) [s⁻¹] | kcat/Km (purified protein) [M⁻¹ s⁻¹]
1 | S723F-PvCPS-α (prenyltransferase α domain of copalyl diphosphate synthase from Penicillium verruculosum, S723F variant) (domain or fragment) | 6 | – | – | – | –
2 | C=C(C)CCOP(=O)(O)OP(=O)(O)O [isopentenyl diphosphate] | – | 700 ± 100 | – | – | –
3 | B1 | – | – | 160 ± 10 | 0.027 | 170
4 | B2 | – | – | 50 ± 10 | 0.11 | 2200
5 | B3 | – | – | 36 ± 3 | 0.051 | 1400
6 | B4 | – | – | 38 ± 1 | 0.0279 | 740
